Target: skeletal muscle ryanodine receptor (RyR1) purified from sheep skeletal muscle, homotetramer (sheep (endogenous in skeletal muscle))
Experiment: negative-stain TEM

skeletal muscle ryanodine receptor (RyR1) purified from sheep skeletal muscle, homotetramer
stoichiometry N: 4
